The text below walks through data of PMC9935901 (2023).

Experiment [1] concerns the target Cell-penetrating FaP2 (CP-FaP2). Kind of experiment: SPR.
Experiment [2] deals with Cell-penetrating FaP3 (CP-FaP3). In words: SPR.

B1: β-catenin (surface plasmon resonance) (natural protein)
chain: MATQADLMELDMAMEPDRKAAVSHWQQQSYLDSGIHSGATTTAPSLSGKGNPEEEDVDTSQVLYEWEQGFSQSFTQEQVADIDGQYAMTRAQRVRAAMFPETLDEGMQIPSTQFDAAHPTNVQRLAEPSQMLKHAVVNLINYQDDAELATRAIPELTKLLNDEDQVVVNKAAVMVHQLSKKEASRHAIMRSPQMVSAIVRTMQNTNDVETARCTAGTLHNLSHHREGLLAIFKSGGIPALVKMLGSPVDSVLFYAITTLHNLLLHQEGAKMAVRLAGGLQKMVALLNKTNVKFLAITTDCLQILAYGNQESKLIILASGGPQALVNIMRTYTYEKLLWTTSRVLKVLSVCSSNKPAIVEAGGMQALGLHLTDPSQRLVQNCLWTLRNLSDAATKQEGMEGLLGTLVQLLGSDDINVVTCAAGILSNLTCNNYKNKMMVCQVGGIEALVRTVLRAGDREDITEPAICALRHLTSRHQEAEMAQNAVRLHYGLPVVVKLLHPPSHWPLIKATVGLIRNLALCPANHAPLREQGAIPRLVQLLVRAHQDTQRRTSMGGTQQQFVEGVRMEEIVEGCTGALHILARDVHNRIVIRGLNTIPLFVQLLYSPIENIQRVAAGVLCELAQDKEAAEAIEAEGATAPLTELLHSRNEGVATYAAAVLFRMSEDKPQDYKKRLSVELTSSLFRTEPMAWNETADLGLDIGAQGEPLGYRQDDPSYRSFHSGGYGQDALGMDPMMEHEMGGHHPGADYPVDGLPDLGHAQDLMDGLPPGDSNQLAWFDTDL
For B1, the equilibrium dissociation constant (Kd) in experiment [1] turned out to be 194 nM; in experiment [2], 61.9 nM.
